Reference: US20240207405A1, “IL2 TETHERED TO ITS RECEPTOR IL2RBETA AND PORE-FORMING PROTEINS AS A PLATFORM TO ENHANCE IMMUNE CELL ACTIVITY” (The General Hospital Corporation, priority 2021, published 2024)

Experiments:
NK92^CIRB cells [1] = experiment: Growth of NK92^CIRB cells in the presence of lactate dehydrogenase inhibitor R-GNE140 (cell count); format: cell-based, human; settings: total cell count, FIG. 11, read-out: IC50 of R-GNE140 for inhibiting growth of NK92^CIRB cells
Protocol: (§1) The ability of NK92^CIRB and NK92^CIRB21 cells to grow in the presence of the lactate dehydrogenase inhibitor R-GNE140 was tested. Cells were incubated with increasing concentrations of R-GNE140 and total number of cells were counted.

NK92^CIRB21 cells [2] = experiment: Growth of NK92^CIRB21 cells in the presence of lactate dehydrogenase inhibitor R-GNE140 (cell count); format: cell-based, human; settings: total cell count, FIG. 11, read-out: IC50 of R-GNE140 for inhibiting growth of NK92^CIRB21 cells
Protocol: as §1

[3] = cited from earlier work
NK92^CIRB21-icasp9 cells = experiment: Killing of icasp9-expressing NK92 cells by dimerizer drug AP1093; format: cell-based, human
Protocol: (§2) L-Holin killing assays—Cells selected cell for L-Holin were tested in a 24 well plate using 32,000 cells per well. 24 hours later doxycycline was added at 1 μg/ml for 4-5 days. Cells selected for icasp9 were tested in a 24 well plate using 32,000 cells per well. 24 hours later dimerizer drug AP1093 was added at 2 or 10 nM for 4-5 days. Surviving cells were quantified using crustal violet assay as described in (Jounaidi et al, Cancer Research 2017).
Next, we examined whether high doses of AP1093 could completely kill NK92^CIRB21−icasp9 cells.

PC-3 cells = format: cell-based, human
Source text: Interleukins IL4, IL7, IL9, IL15 and IL21 belong to the same family as IL2, and use the same common IL2Rg. They all have their own private receptors, except for IL2 and IL15, which use IL2Rβ in addition to their own alpha receptors. […] Thus the entire cytoplasmic domain of IL21R was cloned then added Head-to-Tail to the C-terminal of IL2Rβ in the chimera CIRB. […] As shown herein, it was possible to emulate the activation signals from multiple cytokines that activate NK cells via different receptors by using only one ligand and a hybrid receptor.

NK92^CIRB cells [4] = experiment: L-holin killing of NK92^CIRB cells (doxycycline induction, cell count); format: cell-based, human; settings: total cell count, FIG. 12
Protocol: The ability of L-holin to trigger death of NK92^CIRB cells and NK92^CIRB21 cells was tested. L-bolin expression was induced in NK92^CIRB cells and NK92^CIRB21 cells with doxycycline. Cells were washed to remove doxycycline and then cells were cultured for 13 days. Total number of cells were counted after 13 days of growth in the absence of doxycycline. Untreated cells were counted as a control. […] This sensitivity is consistent with the reliance of NK92^CIRB21 cells on mitochondria, which are lysed by L-holin during cell killing.

glioblastoma GL261 cells = experiment: L-Holin killing assay in GL261 clones (doxycycline induction, crystal violet); format: cell-based, mouse
Protocol: L-Holin GL261 and icasp9 GL261 clones were selected as single cells by extreme dilution in 96 well plates. Clones were grown and evaluated for their response to dox (L-Holin) or AP1093 (icasp9).
as §2
Mouse glioblastoma cell line GL261 was infected by a retrovirus expressing L-Holin. Clones were selected, L-Holin expression was induced with doxycycline, and cell viability was determined. Four clones were tested: 2 clones with high expression levels of L-Holin (Clone 1, Clone 5) and 2 clones with low expression levels of L-Holin (Clone 6, Clone 9).
We compared the ability of L-Holin to trigger cell death to that of icasp9 in GL261 cells. GL261 cells were infected by a retrovirus expressing L-Holin or a retrovirus expressing icasp9. Clones were selected, L-Holin expression was induced with doxycycline, and cell viability was determined. […]

NK92^CIRB21 cells [5] = experiment: L-Holin killing of NK92^CIRB21 cells (doxycycline induction, cell count); format: cell-based, human; settings: NK92^CIRB21 cells expressing L-Holin, total cell count, FIG. 5B / FIG. 12
Protocol: NK92^CIRB21 pool selection—NK92^CIRB21 cells expressing L-Holin were selected with puromycin and NK92^CIRB21 cells expressing icasp9 and GFP were sorted by flow cytometry for GFP.
as §2
Mouse glioblastoma cell line GL261 was infected by a retrovirus expressing L-Holin. Clones were selected, L-Holin expression was induced with doxycycline, and cell viability was determined. […]
Expression of L-Holin in NK92^CIRB21+Holin cells was induced with doxycycline. Total number of cells were counted after doxycycline treatment. […] After 13 days of growth in the absence of doxycycline, total number of cells were counted. Untreated cells were counted as a control.
The ability of L-holin to trigger death of NK92^CIRB cells and NK92^CIRB21 cells was tested. […] Total number of cells were counted after 13 days of growth in the absence of doxycycline. Untreated cells were counted as a control. […]

O=C1N[C@](c2ccc(N3CCOCC3)cc2)(c2ccsc2)CC(O)=C1Sc1ccccc1Cl [R-GNE140]
IC50 (NK92^CIRB cells [1]): 4.7 µM | IC50 (NK92^CIRB21 cells [2]): 10.6 µM

IL2: immunostimulatory cytokine
half-life of IL2 in vivo [3]: less than 10 min

CC[C@H](C(=O)N1CCCC[C@H]1C(=O)O[C@H](CCc1ccc(OC)c(OC)c1)c1cccc(OCC(=O)NCCNC(=O)COc2cccc([C@@H](CCc3ccc(OC)c(OC)c3)OC(=O)[C@@H]3CCCCN3C(=O)[C@@H](CC)c3cc(OC)c(OC)c(OC)c3)c2)c1)c1cc(OC)c(OC)c(OC)c1 [AP1093]
viability of NK92^CIRB21-icasp9 cells in the presence of AP1093 (NK92^CIRB21-icasp9 cells; 10 nM AP1093, FIG. 9A): remained viable | viability of NK92 cells expressing GFP and icasp9 in AP1093 (NK92^CIRB21-icasp9 cells; 10 nM AP1093, after 5 days, GFP detection by immunofluorescence, FIG. 9B): viable in 10 nM of AP1093 even after 5 days

IL21: soluble interleukin of the IL2 family added to NK92^CIRB cells
effect of soluble interleukin on cytotoxicity of NK92^CIRB against PC-3 cells (PC-3 cells): dramatically enhance cytotoxicity

B1: L-Holin: pore-forming holin protein from bacteriophage, SEQ ID NO: 1, expressed under a tetracycline regulated promoter (protein)
chain: MPEKHDLLAAILAAKEQGIGAILAFAMAYLRGRYNGGAFTKTVIDATMCAIIAWFIRDLLDFAGLSSNLAYITSVFIGYIGTDSIGSLIKRFAAKKAGVEDGRNQ
modifications: Enterobacteriaceae
detectable cells after L-Holin induction and 13 days of growth in the absence of doxycycline (NK92^CIRB cells [4]): some NK92^CIRB cells survived and were detectable | triggering of cell death compared with icasp9 expressed at low levels (glioblastoma GL261 cells; GL261 cells, icasp9 Clone 2, 2 nM or 10 nM AP1903, FIGS. 7A-7B): more effective at triggering cell death than icasp9 expressed at low levels | cell death as a result of L-Holin expression (glioblastoma GL261 cells; GL261 clones with high (1, 5) and low (6, 9) L-Holin expression, doxycycline induced, FIG. 5A): majority, if not all, of GL261 cells died | detectable cells after L-Holin induction and 13 days of growth in the absence of doxycycline (NK92^CIRB21 cells [5]): remained undetectable | detectable cells after L-Holin induction and 13 days of growth in the absence of doxycycline (NK92^CIRB21 cells [5]; listed as L-holin): undetectable
